Measured values: patent US20200297760A1 (JUNO THERAPEUTICS, published 2020)

How the values were obtained:
[1] = target: HLA-A*11:01 (recombinant MHC class I molecule) (human); experiment: REVEAL MHC-peptide binding assay, recombinant HLA-A*11:01
Protocol: (§1) Specifically, assessment was of a series of overlapping 9-mer peptides derived from the sequence […] (set forth in SEQ ID NO: 7), which contains a portion of the CD28 transmembrane domain and 4-1BB costimulatory domain spanning the junction between the domains (bond joining the two amino acids noted in underline). In addition, a series of overlapping 9-mer peptides of each of a number of different variants of this portion also were assessed, each variant containing a mutation or mutations in this region as described in Example 2.
(§2) The various 9-mer overlapping peptides were synthesized and their purity tested by MALDI-TOF Mass Spectrometry.

[2] = target: HLA-B*08:01 (recombinant MHC class I molecule) (human); experiment: REVEAL MHC-peptide binding assay, recombinant HLA-B*08:01
Protocol: as §1, §2

[3] = target: T1, HLA-A*03:01 (human); experiment: REVEAL MHC-peptide binding assay, recombinant HLA
T1 construct: recombinant MHC class I molecule incubated with the synthetic peptide (REVEAL, ProImmune)
Protocol: as §1, §2

[4] = target: T2, HLA-A*02:01 (human); experiment: REVEAL MHC-peptide binding assay, recombinant HLA
T2 construct: recombinant MHC class I molecule incubated with the synthetic peptide (REVEAL, ProImmune)
Protocol: as §1, §2

In Vitro Score [1]	In Vitro Score [2]	In Vitro Score [3]	In Vitro Score [4]	Binder
6.5 score, % of positive control peptide	0 score, % of positive control peptide			FWVKRGRKK [Synthetic peptide FWVKRGRKK]
5.6 score, % of positive control peptide	0 score, % of positive control peptide			FWVHRGRKK [Synthetic peptide FWVHRGRKK]
18.3 score, % of positive control peptide	0 score, % of positive control peptide			FWVQRGAKK [Synthetic peptide FWVQRGAKK]
27.6 score, % of positive control peptide	0.4 score, % of positive control peptide			FWVKRGHKK [Synthetic peptide FWVKRGHKK]
5.9 score, % of positive control peptide	0 score, % of positive control peptide			FWVQRGNKK [Synthetic peptide FWVQRGNKK]
5.7 score, % of positive control peptide	1.9 score, % of positive control peptide			FWVQRGRKK [Synthetic peptide FWVQRGRKK]
7.3 score, % of positive control peptide	0.1 score, % of positive control peptide			FWVKRGNKK [Synthetic peptide FWVKRGNKK]
	0 score, % of positive control peptide			FWVARGRKK [Synthetic peptide FWVARGRKK]
5.6 score, % of positive control peptide	0.1 score, % of positive control peptide			FWVKRGSKK [Synthetic peptide FWVKRGSKK]
13.2 score, % of positive control peptide	0.3 score, % of positive control peptide			FWVKRGAKK [Synthetic peptide FWVKRGAKK]
25.3 score, % of positive control peptide	6.3 score, % of positive control peptide			FWVKRGLKK [Synthetic peptide FWVKRGLKK]
6.8 score, % of positive control peptide	0 score, % of positive control peptide			FWVQRGSKK [Synthetic peptide FWVQRGSKK]
5 score, % of positive control peptide	0 score, % of positive control peptide			FWVLRGRKK [Synthetic peptide FWVLRGRKK]
6.3 score, % of positive control peptide	0 score, % of positive control peptide			FWVSRGRKK [Synthetic peptide FWVSRGRKK]
25.9 score, % of positive control peptide	1.9 score, % of positive control peptide			AFIIFWVKR [Synthetic peptide AFIIFWVKR]
15 score, % of positive control peptide	0 score, % of positive control peptide			AFIIFWVQR [Synthetic peptide AFIIFWVQR]
17.2 score, % of positive control peptide	0.2 score, % of positive control peptide			AFIIFWVLR [Synthetic peptide AFIIFWVLR]
2.8 score, % of positive control peptide	0 score, % of positive control peptide			VAFIIFWVA [Synthetic peptide VAFIIFWVA]
3.9 score, % of positive control peptide	0.2 score, % of positive control peptide			VAFIIFWVQ [Synthetic peptide VAFIIFWVQ]
0.2 score, % of positive control peptide	0 score, % of positive control peptide			VAFIIFWVL [Synthetic peptide VAFIIFWVL]

In Vitro Score [1]	In Vitro Score [2]	In Vitro Score [3]	In Vitro Score [4]	Binder
12.3 score, % of positive control peptide	0 score, % of positive control peptide			VAFIIFWVH [Synthetic peptide VAFIIFWVH]
29.3 score, % of positive control peptide	0.4 score, % of positive control peptide			IFWVKRGRK [Synthetic peptide IFWVKRGRK]
103 score, % of positive control peptide	0 score, % of positive control peptide			IFWVQRGSK [Synthetic peptide IFWVQRGSK]
29.3 score, % of positive control peptide	0 score, % of positive control peptide			IFWVLRGRK [Synthetic peptide IFWVLRGRK]
4.8 score, % of positive control peptide	28.5 score, % of positive control peptide			WVKRGRKKL [Synthetic peptide WVKRGRKKL]
22.1 score, % of positive control peptide	65.7 score, % of positive control peptide			WVKRGLKKL [Synthetic peptide WVKRGLKKL]
6.7 score, % of positive control peptide	4.3 score, % of positive control peptide			WVKRGRKKS [Synthetic peptide WVKRGRKKS]
5.9 score, % of positive control peptide				WVQRGSKKL [Synthetic peptide WVQRGSKKL]
3.2 score, % of positive control peptide	4 score, % of positive control peptide			WVLRGRKKL [Synthetic peptide WVLRGRKKL]
5.6 score, % of positive control peptide	19.2 score, % of positive control peptide			WVHRGRKKL [Synthetic peptide WVHRGRKKL]
3.8 score, % of positive control peptide	11.4 score, % of positive control peptide			WVQRGAKKL [Synthetic peptide WVQRGAKKL]
4.4 score, % of positive control peptide	6.2 score, % of positive control peptide			WVSRGRKKL [Synthetic peptide WVSRGRKKL]
19.5 score, % of positive control peptide	0.1 score, % of positive control peptide			IIFWVKRGH [Synthetic peptide IIFWVKRGH]
16.9 score, % of positive control peptide	0.1 score, % of positive control peptide			IIFWVQRGS [Synthetic peptide IIFWVQRGS]
29 score, % of positive control peptide	0 score, % of positive control peptide			IIFWVQRGN [Synthetic peptide IIFWVQRGN]
		2.2 % of positive control peptide	3.5 % of positive control peptide	FWVKRGRKK (synthetic 9-mer of the CD28-4-1BB junction; mutation: none)
		3.6 % of positive control peptide		FWVKRGNKK (synthetic 9-mer variant; the entry already carries the change)
		0.4 % of positive control peptide	3.3 % of positive control peptide	FWVLRGRKK (synthetic 9-mer variant; the entry already carries the change)
		2.7 % of positive control peptide	2.2 % of positive control peptide	FWVQRGAKK (synthetic 9-mer variant; the entry already carries the changes)
		5 % of positive control peptide	13.5 % of positive control peptide	FWVARGRKK (synthetic 9-mer variant; the entry already carries the change)

In Vitro Score [1]	In Vitro Score [2]	In Vitro Score [3]	In Vitro Score [4]	Binder
		3.6 % of positive control peptide	1.6 % of positive control peptide	FWVHRGRKK (synthetic 9-mer variant; the entry already carries the change)
		4.1 % of positive control peptide	2.6 % of positive control peptide	FWVKRGHKK (synthetic 9-mer variant; the entry already carries the change)
		4.7 % of positive control peptide	4.3 % of positive control peptide	FWVKRGAKK (synthetic 9-mer variant; the entry already carries the change)
		2.7 % of positive control peptide		FWVKRGLKK (synthetic 9-mer variant; the entry already carries the change)
		1.3 % of positive control peptide	3.1 % of positive control peptide	FWVQRGNKK (synthetic 9-mer variant; the entry already carries the changes)
		5.9 % of positive control peptide	1.9 % of positive control peptide	FWVKRGSKK (synthetic 9-mer variant; the entry already carries the change)
		2.9 % of positive control peptide	1.5 % of positive control peptide	FWVSRGRKK (synthetic 9-mer variant; the entry already carries the change)
		1.9 % of positive control peptide	0.8 % of positive control peptide	FWVQRGSKK (synthetic 9-mer variant; the entry already carries the changes)
		6.4 % of positive control peptide	5.2 % of positive control peptide	FWVQRGRKK (synthetic 9-mer variant; the entry already carries the change)
		26.6 % of positive control peptide	5.3 % of positive control peptide	IIFWVKRGH (synthetic 9-mer variant; the entry already carries the change)
		3.6 % of positive control peptide	13 % of positive control peptide	IIFWVQRGN (synthetic 9-mer variant; the entry already carries the changes)
		4.5 % of positive control peptide	22.4 % of positive control peptide	IIFWVQRGS (synthetic 9-mer variant; the entry already carries the changes)
0.4 score, % of positive control peptide	0.1 score, % of positive control peptide			FIIFWVKRG [Synthetic peptide FIIFWVKRG]
1.5 score, % of positive control peptide	0.6 score, % of positive control peptide			FIIFWVQRG [Synthetic peptide FIIFWVQRG]
2.4 score, % of positive control peptide	0.2 score, % of positive control peptide			FIIFWVLRG [Synthetic peptide FIIFWVLRG]
5.1 score, % of positive control peptide	0.4 score, % of positive control peptide			FIIFWVSRG [Synthetic peptide FIIFWVSRG]
		20.5 % of positive control peptide	4.5 % of positive control peptide	IFWVKRGRK (synthetic 9-mer of the CD28-4-1BB junction; mutation: none)
		20.3 % of positive control peptide	33.5 % of positive control peptide	IFWVQRGSK (synthetic 9-mer variant; the entry already carries the changes)
		19.5 % of positive control peptide	2.9 % of positive control peptide	IFWVLRGRK (synthetic 9-mer variant; the entry already carries the change)
